Assay results: patent US20230399409A1 (SHANGHAI HUAOTA BIOPHARMACEUTICAL, published 2023)
Residue numbers refer to the chain shown, from its start. Names may count otherwise. Each block holds one binder with its values, some of them ahead of it.

Experiments:
human IL-36R [1] = molecular target: T1, human IL-36R (human, UniProt Q9HB29 20-575); assay: cell-based or functional assay
T1 sequence (looked up): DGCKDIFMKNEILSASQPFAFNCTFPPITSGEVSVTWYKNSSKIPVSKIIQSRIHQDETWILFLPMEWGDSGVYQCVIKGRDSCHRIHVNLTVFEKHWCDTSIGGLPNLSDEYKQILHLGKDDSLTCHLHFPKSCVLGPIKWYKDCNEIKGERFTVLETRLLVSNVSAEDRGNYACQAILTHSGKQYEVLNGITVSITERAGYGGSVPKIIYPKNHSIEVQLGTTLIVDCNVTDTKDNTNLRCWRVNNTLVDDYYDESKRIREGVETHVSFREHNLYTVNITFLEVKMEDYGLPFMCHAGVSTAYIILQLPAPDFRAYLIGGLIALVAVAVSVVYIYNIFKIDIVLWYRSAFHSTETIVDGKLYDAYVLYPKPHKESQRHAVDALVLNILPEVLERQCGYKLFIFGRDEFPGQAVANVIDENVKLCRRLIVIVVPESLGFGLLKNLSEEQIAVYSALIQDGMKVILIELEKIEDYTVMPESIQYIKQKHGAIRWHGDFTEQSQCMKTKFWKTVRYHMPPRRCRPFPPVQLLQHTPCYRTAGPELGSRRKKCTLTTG

human IL-36R [2] = molecular target: T1, human IL-36R; assay: flow cytometry on CHO-K1 cells expressing human IL-36R
human IL-36R [3] = molecular target: T1, human IL-36R; assay: cell-based or functional assay; remark: listed apart in the source
human IL-36R [4] = molecular target: T1, human IL-36R; assay: cell-based or functional assay; remark: listed apart in the source
[5] = molecular target: T2, His-tagged human IL-1 Rrp2/IL-1 R6 protein (human, UniProt Q9HB29 20-335); assay: SPR (Biacore 8K), His-tagged antigen captured by anti-His on CM5, antibody as analyte, 1:1 model
T2 construct: Bought reagent; also called Human IL-1 Rrp2/IL-1 R6 Protein, His Tag; ACRO Biosystems IL2-H52H6; not shown: His tag
T2 sequence (looked up): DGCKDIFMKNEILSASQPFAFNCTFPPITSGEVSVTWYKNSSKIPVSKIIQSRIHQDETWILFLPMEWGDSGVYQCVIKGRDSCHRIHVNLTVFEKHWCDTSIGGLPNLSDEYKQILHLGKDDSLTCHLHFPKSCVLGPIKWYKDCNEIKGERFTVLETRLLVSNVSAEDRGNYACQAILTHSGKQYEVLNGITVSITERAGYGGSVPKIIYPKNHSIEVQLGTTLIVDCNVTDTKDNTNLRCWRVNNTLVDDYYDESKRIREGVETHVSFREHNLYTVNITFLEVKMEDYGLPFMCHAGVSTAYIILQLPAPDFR
Description: Series S Sensor Chip CM5 was equilibrated for 20-30 min at room temperature, and then fitted in the instrument. Following the instruction manual for His Capture Kit, an anti-His antibody was immobilized onto the Series S Sensor Chip CM5. An HBS-EP+(10×) solution was diluted 10-fold in ultrapure water as the running buffer. An antigen (His-tagged human IL-1 Rrp2/IL-1 R6 protein) was diluted to 1 μg/ml and 10 μL/min using the running buffer, and loaded during 15 sec to capture around 50 RU of antigen. An antibody sample were diluted to 30 nM, 15 nM, 7.5 nM, 3.75 nM, 1.875 nM, 0.9375 nM, and 0.46875 nM using an equilibration buffer; the running buffer was taken as zero concentration; at 30 μL/min, binding and dissociation were allowed to occur for 120 s and 900 s, respectively; and the chip was regenerated with the glycine solution at pH 1.5. The sample was analyzed by a capture-based single-cycle kinetics program; the corresponding analysis program was selected to analyze the data, and it was confirmed that there was no obvious reference binding; and the Kinetics 1:1 binding model was selected for fitting analysis to acquire the kinetic parameters of the sample.

human IL-36R [6] = molecular target: T1, human IL-36R; assay: cell-based or functional assay; remark: listed apart in the source
human IL-36R [7] = molecular target: T1, human IL-36R; assay: cell-based or functional assay; remark: listed apart in the source
monkey IL-36R = molecular target: T3, monkey IL-36R (monkey); assay: flow cytometry on CHO-K1 cells expressing monkey IL-36R
T3 construct: whole, on cells

HuIL-6 detected in HIF under IL-36α stimulation IC50 (human IL-36R [1]): 0.0479 µg/mL
EC50 (human IL-36R [2]): 0.062 µg/mL
HuIL-6 detected in NCI/ADR-RES under IL-36β stimulation IC50 (human IL-36R [3]): 0.00887 µg/mL
IC50, GM-CSF release under IL-36 α stimulation (NCI/ADR-RES cells) (human IL-36R [4]): 0.022 µg/mL
IC50, GM-CSF release under IL-36 β stimulation (NCI/ADR-RES cells) (human IL-36R [4]): 0.0174 µg/mL
IC50, GM-CSF release under IL-36 γ stimulation (NCI/ADR-RES cells) (human IL-36R [4]): 0.0198 µg/mL
IC50, IL-6 release under IL-36 α stimulation (NCI/ADR-RES cells) (human IL-36R [4]): 0.015 µg/mL
IC50, IL-6 release under IL-36 β stimulation (NCI/ADR-RES cells) (human IL-36R [4]): 0.0139 µg/mL
IC50, IL-6 release under IL-36 γ stimulation (NCI/ADR-RES cells) (human IL-36R [4]): 0.0162 µg/mL
IC50, IL-8 release under IL-36 α stimulation (NCI/ADR-RES cells) (human IL-36R [4]): 0.0315 µg/mL
IC50, IL-8 release under IL-36 β stimulation (NCI/ADR-RES cells) (human IL-36R [4]): 0.0223 µg/mL
IC50, IL-8 release under IL-36 γ stimulation (NCI/ADR-RES cells) (human IL-36R [4]): 0.0198 µg/mL
IC50, pNF-κB under IL-36 β stimulation (NCI/ADR-RES cells) (human IL-36R [4]): 71.4 ng/ml
Kd [5]: 0.0452 nM
koff [5]: 4.37e-05 s⁻¹
kon [5]: 967000 M⁻¹ s⁻¹
HuIL-6 detected in HIF under IL-36β stimulation IC50 (human IL-36R [6]): 0.0546 µg/mL
pNFκB detected in HIF under IL-36β stimulation IC50 (human IL-36R [7]): 0.105 µg/mL
EC50 (monkey IL-36R): 0.0595 µg/mL
B1: humanized anti-IL-36R antibody 900527 (antibody, V domains shown)
VH: QVQLVQSGAEVKKPGASVKVSCKASGYTFTSSWMHWAKQAPGQGLEWIGEIHPNSAKTNYNQKFQGRVTMTRDTSISTAYMELSRLRSDDTAVYYCARVDYGKPWFAYWGQGTLVTVSS
VL: QIVLTQSPGTLSLSPGERATLSCRASSSVSSSYLHWYQQKPGQAPRLWIYSTSSRATGIPDRFSGSGSGTDFTLTISRLEPEDFATYYCQQFQSSPLTFGQGTKLEIK
notes: IgG1 (human IgG1 L234A/L235A, human kappa); also called HB0034

IC50, GM-CSF release under IL-36 α stimulation (NCI/ADR-RES cells) (human IL-36R [4]): 0.0202 µg/mL
IC50, GM-CSF release under IL-36 β stimulation (NCI/ADR-RES cells) (human IL-36R [4]): 0.0186 µg/mL
IC50, GM-CSF release under IL-36 γ stimulation (NCI/ADR-RES cells) (human IL-36R [4]): 0.021 µg/mL
IC50, IL-6 release under IL-36 α stimulation (NCI/ADR-RES cells) (human IL-36R [4]): 0.0216 µg/mL
IC50, IL-6 release under IL-36 β stimulation (NCI/ADR-RES cells) (human IL-36R [4]): 0.0168 µg/mL
IC50, IL-6 release under IL-36 γ stimulation (NCI/ADR-RES cells) (human IL-36R [4]): 0.0176 µg/mL
IC50, IL-8 release under IL-36 α stimulation (NCI/ADR-RES cells) (human IL-36R [4]): 0.0304 µg/mL
IC50, IL-8 release under IL-36 β stimulation (NCI/ADR-RES cells) (human IL-36R [4]): 0.022 µg/mL
IC50, IL-8 release under IL-36 γ stimulation (NCI/ADR-RES cells) (human IL-36R [4]): 0.018 µg/mL
IC50, pNF-κB under IL-36 β stimulation (NCI/ADR-RES cells) (human IL-36R [4]): 64.9 ng/ml
Kd [5]: 0.0579 nM
koff [5]: 5.1e-05 s⁻¹
kon [5]: 881000 M⁻¹ s⁻¹
B2: humanized anti-IL-36R antibody 900534 (antibody, V domains shown)
VH: B1 VH
VL: B1 VL with W48L
notes: IgG1 (human IgG1 L234A/L235A, human kappa)

IC50, GM-CSF release under IL-36 α stimulation (NCI/ADR-RES cells) (human IL-36R [4]): 0.0206 µg/mL
IC50, GM-CSF release under IL-36 β stimulation (NCI/ADR-RES cells) (human IL-36R [4]): 0.0184 µg/mL
IC50, GM-CSF release under IL-36 γ stimulation (NCI/ADR-RES cells) (human IL-36R [4]): 0.0179 µg/mL
IC50, IL-6 release under IL-36 α stimulation (NCI/ADR-RES cells) (human IL-36R [4]): 0.0124 µg/mL
IC50, IL-6 release under IL-36 β stimulation (NCI/ADR-RES cells) (human IL-36R [4]): 0.0223 µg/mL
IC50, IL-6 release under IL-36 γ stimulation (NCI/ADR-RES cells) (human IL-36R [4]): 0.0121 µg/mL
IC50, IL-8 release under IL-36 α stimulation (NCI/ADR-RES cells) (human IL-36R [4]): 0.0398 µg/mL
IC50, IL-8 release under IL-36 β stimulation (NCI/ADR-RES cells) (human IL-36R [4]): 0.0221 µg/mL
IC50, IL-8 release under IL-36 γ stimulation (NCI/ADR-RES cells) (human IL-36R [4]): 0.018 µg/mL
IC50, pNF-κB under IL-36 β stimulation (NCI/ADR-RES cells) (human IL-36R [4]): 105 ng/ml
Kd [5]: 0.0148 nM
koff [5]: 1.34e-05 s⁻¹
kon [5]: 904000 M⁻¹ s⁻¹
B3: humanized anti-IL-36R antibody 900513 (antibody, V domains shown)
VH: B1 VH
VL: B1 VL with Q1E, R24S, S54N
notes: IgG1; built from the chimeric expression plasmids (human IgG1 L234A/L235A, human kappa)

HuIL-6 detected in HIF under IL-36α stimulation IC50 (human IL-36R [1]): 0.146 µg/mL
IC50, GM-CSF release under IL-36 α stimulation (NCI/ADR-RES cells) (human IL-36R [4]): 0.0328 µg/mL
IC50, GM-CSF release under IL-36 β stimulation (NCI/ADR-RES cells) (human IL-36R [4]): 0.0224 µg/mL
IC50, GM-CSF release under IL-36 γ stimulation (NCI/ADR-RES cells) (human IL-36R [4]): 0.0288 µg/mL
IC50, IL-6 release under IL-36 α stimulation (NCI/ADR-RES cells) (human IL-36R [4]): 0.0332 µg/mL
IC50, IL-6 release under IL-36 β stimulation (NCI/ADR-RES cells) (human IL-36R [4]): 0.0204 µg/mL
IC50, IL-6 release under IL-36 γ stimulation (NCI/ADR-RES cells) (human IL-36R [4]): 0.0198 µg/mL
IC50, IL-8 release under IL-36 α stimulation (NCI/ADR-RES cells) (human IL-36R [4]): 0.0439 µg/mL
IC50, IL-8 release under IL-36 β stimulation (NCI/ADR-RES cells) (human IL-36R [4]): 0.0292 µg/mL
IC50, IL-8 release under IL-36 γ stimulation (NCI/ADR-RES cells) (human IL-36R [4]): 0.0284 µg/mL
IC50, pNF-κB under IL-36 β stimulation (NCI/ADR-RES cells) (human IL-36R [4]): 115 ng/ml
Kd [5]: 0.0254 nM
koff [5]: 1.68e-05 s⁻¹
kon [5]: 660000 M⁻¹ s⁻¹
HuIL-6 detected in HIF under IL-36β stimulation IC50 (human IL-36R [6]): 0.0837 µg/mL
pNFκB detected in HIF under IL-36β stimulation IC50 (human IL-36R [7]): 0.1 µg/mL
B4: anti-IL-36R chimeric antibody 900497 (antibody, V domains shown)
VH: QVQLQQTGSVLVRPGTSVKLSCKASGYTFTSSWMHWAKQRPGQGLEWIGEIHPNSAKTNYNEKFKGKATLTVDTFSSTAYVDLSSLASEDSAVYYCARVDYGKPWFAYWGQGTLVTVSA
VL: QIVLTQSPTIMSASPGERVTMTCSASSSVSSSYLHWYQQKPGSSPKLWIYSTSNLASGVPARFSGSGSGTSYSLTINSMEAEDAATYYCQQFQSSPLTFGAGTKLGLK
notes: Human-mouse chimera: human IgG1 heavy-chain constant region with L234A and L235A (Eu numbering), human kappa constant region
